Positions count from the first letter of the chain named.
B1: hCD27.15-6B (antibody, human IgG4 S228P, kappa, V domains shown)
VH: QVQLVQSGAEVKKPGASVKVSCKASGFIIKATYMHWVRQAPGQRLEWMGRIDPANGETKYDPKFQVRVTITADTSASTAYMELSSLRSEDTAVYYCARYAWYFDVWGQGTLVTVSS
VL: DIQMTQSPSSLSASVGDRVTITCRASENIYSFLAWYQQKPGKAPKLLIYHAKTLAEGVTSRFSGSGSGTDFTLTISSLQPEDSATYYCQHYYGSPLTFGQGTRLEIKR
notes: also called hCD27.15 (humanized 6B); humanized hCD27.15 (human IgG4, Clone 6B)
B2: hCD27.131A (mouse parental 131A) (antibody, mouse IgG1, V domains shown)
VH: QIQLVQSGPELKKPGETVKISCKASGYTFTNYGMNWVKQAPGKGLKWMGWINTNTGEPTYAEEFKGRFAFSLETSATTAYLQINNLKNEDTATYFCAREGDAMDYWGQGTSVTVSS
VL: QIVLTQSPAIMSASPGEKVTMTCSASSSVSYMHWYQQKSGTSPKRWIYDTSKLASGVPARFSGSGSGTSYSLTISSMEAEDAATYYCQQWNSYPFTFGSGTKLEIK
notes: Mouse IgG1 antibody; also called mouse hCD27.131A

Experiments:
[1] = target: T1, Q41A; experiment: flow cytometry on CHO-K1 transfectants, cell hatched (loss of binding)
T1 construct: also called hCD27 Q41A
T1 receptor chain: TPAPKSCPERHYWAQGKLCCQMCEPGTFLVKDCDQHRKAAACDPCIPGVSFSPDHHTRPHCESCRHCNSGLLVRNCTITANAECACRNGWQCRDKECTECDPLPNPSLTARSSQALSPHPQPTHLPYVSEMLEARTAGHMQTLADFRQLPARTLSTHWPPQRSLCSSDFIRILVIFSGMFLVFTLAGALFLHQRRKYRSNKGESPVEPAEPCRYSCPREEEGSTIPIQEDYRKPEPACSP
Experimental: (§1) The ability of several anti-hCD27 antibodies to bind to a series of hCD27 alanine mutants was determined using CHO-K1 cells, transiently transfected pCI-neo empty vector, pCI-neo.hCD27 and several pCI-neo.CD27Ala mutant constructs.
(§2) Detached cells were transferred to 96 wells round-bottomed well plates at approximately 1.2×10⁵ cells/well. After spinning down the cells, discarding the supernatants and re-suspending the cells in the residual volume, the primary antibodies were added and incubated for 30 minutes at 4° C. Cells were washed three times with DPBS/BSA 1%, followed by centrifugation, discarding of the supernatants and re-suspension in the residual volume. […] After washing once, antibody binding was detected using the HTS plate reader (FACS Canto II) and FlowJo software for data analysis. Debris, dead cells and doublets were excluded from the analysis. Binding was expressed as the geometric mean of the FITC signal, relative to antibody binding to hCD27, which was set at 100%.

[2] = target: T2, K31A; experiment: as above
T2 construct: also called hCD27 K31A
T2 receptor chain: T1 receptor chain with K31A, A41Q
Experimental: as §1, §2

[3] = target: T3, D43A; experiment: as above
T3 construct: also called hCD27 D43A
T3 receptor chain: T1 receptor chain with A41Q, D43A
Experimental: as §1, §2

[4] = target: T4, R87A; experiment: flow cytometry on CHO-K1 transfectants;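 note: Anti-hCD27 antibodies tested on transiently transfected CHO-K1 cells bearing hCD27 alanine mutants, 30 min at 4 °C primary incubation, FITC readout excluding debris, dead cells and doublets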
T4 construct: also called hCD27 R87A
T4 receptor chain: T1 receptor chain with A41Q, R87A
Experimental: (§3) The hCD27 variants that were tested are listed. Amino acids correspond to the UniProt P26842-1 sequence. Amino acids 1-20 constitute the signal peptide. Binding is expressed as the geometric mean of the FITC signal, relative to antibody binding to hCD27, which was set at 100%.
as §1, §2

[5] = target: T5, F28A; experiment: flow cytometry on CHO-K1 transfectants;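 note: Anti-hCD27 antibodies tested on transiently transfected CHO-K1 cells bearing hCD27 alanine mutants, 30 min at 4 °C primary incubation, FITC readout excluding debris, dead cells and doublets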
T5 construct: also called hCD27 F28A
T5 receptor chain: T1 receptor chain with F28A, A41Q
Experimental: as §3, §1, §2

[6] = target: T6, human CD27 (A59T) (human, UniProt P26842 21-260); experiment: flow cytometry on transiently transfected CHO-K1 cells
T6 construct: also called hCD27 (A59T); human CD27 variant p.Ala59Thr

[7] = target: T6, human CD27 (A59T); experiment: cell ELISA on CHO-K1 transfectants (selection of the clone)
Experimental: (§4) On day eight, supernatants were screened by cell-ELISA for reactivity to hCD27 as described above. In addition, the hCD27-reactive supernatants were tested for binding to Macaca Mulatta CD27 (mmCD27) expressed on CHO-K1 cells. […] In the cell-ELISA, all incubation steps were followed by a wash step with PBST (PBS with 0.01% Tween 20). Parental CHO-K1, CHO-K1.hCD27, or CHO-K1.mmCD27 cells were seeded (40,000 cells/well) in tissue culture plates and incubated overnight at 37° C. The next day, culture medium was removed and cells were incubated for one hour with (dilutions of) B-cell supernatants at 37° C. […] Subsequently, cells were washed 6 times with PBST and anti-hCD27 immunoreactivity was visualized with 100 μl TMB Stabilized Chromagen (Invitrogen, cat. no. SB02). Reactions were stopped with 100 μl 0.5 M H₂SO₄ and absorbances were read at 460 and 620 nm.
(§5) Hybridoma supernatants were tested in Cell-ELISA experiments for binding to CHO-K1.mmCD27 or CHO-K1 cells expressing hCD27 (A59T), as described above. […] A serial dilution of the supernatants was added.

[8] = target: T7, Macaca mulatta CD27 (mmCD27) (Macaca mulatta (rhesus) / Macaca …, UniProt P26842 21-260 (human entry)); experiment: as above
T7 construct: also called Rhesus CD27; rhesus monkey CD27
T7 chain: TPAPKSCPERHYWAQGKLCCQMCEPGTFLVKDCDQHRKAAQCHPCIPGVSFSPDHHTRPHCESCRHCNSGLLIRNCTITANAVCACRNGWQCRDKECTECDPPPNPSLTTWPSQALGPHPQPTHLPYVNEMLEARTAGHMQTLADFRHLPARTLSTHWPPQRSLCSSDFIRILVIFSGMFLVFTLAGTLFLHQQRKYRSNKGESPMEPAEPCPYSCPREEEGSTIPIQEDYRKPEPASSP
Experimental: as §4, §5

[9] = target: T8, N88A; experiment: flow cytometry on CHO-K1 transfectants, left sub-column
T8 construct: also called hCD27 N88A
T8 receptor chain: T1 receptor chain with A41Q, N88A
Experimental: as §3, §1, §2

[10] = target: T9, W90A; experiment: as above
T9 construct: also called hCD27 W90A
T9 receptor chain: T1 receptor chain with A41Q, W90A
Experimental: as §3, §1, §2

[11] = target: T10, D32A; experiment: as above
T10 construct: also called hCD27 D32A
T10 receptor chain: T1 receptor chain with D32A, A41Q
Experimental: as §3, §1, §2

[12] = target: T4, R87A; experiment: as above
Experimental: as §3, §1, §2

Row | Binder | binding, WT hCD27 = 100 (GM FITC) [1] [%] | binding, WT hCD27 = 100 (GM FITC) [2] [%] | binding, WT hCD27 = 100 (GM FITC) [3] [%] | binding, WT hCD27 = 100 (GM FITC) [4] [%] | binding, WT hCD27 = 100 (GM FITC) [5] [%] | binding result [6] | binding result [7] | binding result [8] | binding, WT hCD27 = 100 (GM FITC) [9] [%] | binding, WT hCD27 = 100 (GM FITC) [10] [%] | binding, WT hCD27 = 100 (GM FITC) [11] [%] | binding, WT hCD27 = 100 (GM FITC) [12] [%]
1 | B1 | 33.9 | 30.3 | 31 | 114 | 59.4 | no binding |  |  |  |  |  | 
2 | B2 |  |  |  |  |  |  | binds | binds | 162 | 126 | 113 | 153
